Test results reported in patent US6306580A, “Preparation of human papillomavirus E1 having helicase activity and method therefor” (priority 1999, dated 2001).
Where two headings read alike, the source gives them in different places.

Key:
HPV-11 E1 helicase = biological target: T1, HPV-11 E1 helicase (Human papillomavirus 11, UniProt P04014); assay: E1 helicase SPA high-throughput assay, inhibition (IC50 curves); format: biochemical, human papillomavirus type 11
T1 construct: made in house; host or cells: SF21 insect cells, recombinant baculovirus (Bac-to-Bac, pFASTBAC1)
From the text: In this assay, the duplex DNA substrate consists of M13 single-stranded DNA (about 8000 bases) to which is annealed a 19 base oligodeoxynucleotide (see FIG. 6). This partial duplex is extended to 24 bases with the incorporation of [^33 P]-labeled dATP by a reaction with the Klenow fragment of DNA polymerase I. Helicase activity results in the separation of this radiolabeled oligo from the M13 DNA. In the absence of a functional helicase, the double-stranded DNA substrate is stable for several hours at the assay temperature.
To detect activity, a second 24-base deoxyoligonucleotide, complementary to the substrate oligo, is added to the reaction mixture in a second step. […]
In the third step, streptavidin-coated SPA beads (Amersham Life Science, code TRKQ7030) are added to the mixture. […] Thus radiolabeled oligo annealed to the biotinylated oligo will be detected, whereas unreacted substrate still hybridized to M13 is not in close proximity to the beads and will not be detected.
In the presence of an inhibitor, less substrate is unwound, so a lower signal is detected. […] The M13 DNA competes with the labeled M13 substrate and inhibits the signal detected. […]
Assay buffer, used for all dilutions, consisted of 20 mM MES, pH 7.0, 10% glycerol, 1.0 mM DTT, and 0.05 mM EDTA. […] Sufficient E1 is used to give approximately 20% unwinding (as determined in Example 9). […]

[1] = system: partial duplex DNA substrate; settings: Yang, PNAS (1993), assayed at 32°; cited from earlier work
[2] = biological target: HPV-11 E2 protein (human papillomavirus type 11) (UniProt P04015); assay: E2-dependent E1 DNA binding assay: E1/E2/ori complex with radiolabeled origin probe, captured with K72 antiserum on protein A-SPA beads, scintillation counting
[3] = system: partial duplex DNA substrate; assay: Helicase specific activity (unwinding of partial duplex DNA), this work; format: biochemical; settings: 37°, enzyme concentration greater than substrate
Procedure: The substrate for the analytical helicase assay consisted of a […] oligonucleotide (GTAAAACGACCAGTGCCAAGC) (SEQ ID NO. 11) end-labeled using [^33 P]ATP and polynucleotide kinase, annealed to M13mp18. Combined helicase/ATPase reactions contained 800 or 1600 ng of E1, 2 mM MgCl2, 1 mM ATP, and 1 μM helicase substrate (concentration in nucleotides) in a total volume of 80 μL of helicase assay buffer (20 mM MES, pH 7.0, 1 mM DTT, 0.05 mM EDTA, 10% glycerol). Reactions were incubated for 2 h at 37° and then placed on ice. […]
Helicase activity was quantitated as follows:
A separate reaction mixture, containing no enzyme was heated to 95° for 10 min., and the resulting free substrate oligonucleotide (completely denatured) was detected as described for reaction mixtures. […] Quantitation of unwinding is calculated relative to the boiled sample with background subtracted.
In all cases the enzyme concentration was greater than the substrate concentration and the substrate was partial duplex DNA. […] The SV-40 TAg was also assessed in the literature and V of 50 and 80 % unwinding/μm protein/min were obtained from these groups respectively (Goetz, JBC (1988); Stahl, EMBO (1986)). […]

## CC[n+]1c(-c2ccccc2)c2cc(N)ccc2c2ccc(N)cc21 [ethidium bromide]
HPV-11 E1 helicase
  IC50: ~4 µM

## BPV E1: bovine papillomavirus E1 helicase, literature value (Yang, PNAS 1993)
[1]
  Helicase Activity V (% unwinding/μM protein/min): 2.9 % unwinding/μM protein/min

## HPV-11 His-E1 protein (wild type) (enzyme)
[2]
  signal over background (fold): 20 to 30 fold

B1: HPV-11 E1: His-tagged E1 helicase of human papillomavirus type 11, low-salt nuclear extraction, Ni affinity purified (SEQ ID NO.26) (protein)
chain: MADDSGTENEGSGCTGWFMVEAIVEHTTGTQISEDEEEEVEDSGYDMVDFIDDRHITQNSVEAQALFNRQEADAHYATVQDLKRKYLGSPYVSPISNVANAVESEISPRLDAIKLTTQPKKVKRRLFETRELTDSGYGYSEVEAATQVEKHGDPENGGDGEERDTGRDIEGEGVEHREAEAVDDSTREHADTSGILELLKCKDIRSTLHGKFKDCFGLSFVDLIRPFKSDRTTCADWVVAGFGIHHSIADAFQKLIEPLSLYAHIQWLTNAWGMVLLVLIRFKVNKSRCTVARTLGTLLNIPENHMLIEPPKIQSGVAALYWFRTGISNASTVIGEAPEWITRQTVIEHSLADSQFKLTEMVQWAYDNDICEESEIAFEYAQRGDFDSNARAFLNSNMQAKYVKDCAIMCRHYKHAEMKKMSIKQWIKYRGTKVDSVGNWKPIVQFLRHQNIEFIPFLSKLKLWLHGTPKKNCIAIVGPPDTGKSCFCMSLIKFLGGTVISYVNSCSHFWLQPLTDAKVALLDDATQPCWTYMDTYMRNLLDGNPMSIDRKHRALTLIKCPPLLVTSNIDISKEEKYKYLHSRVTTFTFPNPFPFDRNGNAVYELSDANWKCFFERLSSSLDIEDSEDEEDGSNSQAFRCVPGSVVRTL
modifications: His tag
[3]
  Helicase Activity V (% unwinding/μM protein/min): 2.5 % unwinding/μM protein/min

B2: HPV-6a E1: His-tagged E1 helicase of human papillomavirus type 6a purified according to the invention (SEQ ID NO.27) (protein)
chain: MADDSGTENEGSGCTGWFMVEAIVQHPTGTQISDDEDEEVEDSGYDMVDFIDDSNITHNSLEAQALFNRQEADTHYATVQDLKRKYLGSPYVSPINTIAEAVESEISPRLDAIKLTRQPKKVKRRLFQTRELTDSGYGYSEVEAGTGTQVEKHGVPENGGDGQEKDTGRDIEGEEHTEAEAPTNSVREHAGTAGILELLKCKDLRAALLGKFKECFGLSFIDLIRPFKSDKTTCLDWVVARFGIHHSISEAFQKLIEPLSLYAHIQWLTNAWGMVLLVLLRFKVNKSRSTVARTLATLLNIPENQMLIEPPKIQSGVAALYWFRTGISNASTVIGEAPEWITRQTVIEHGLADSQFKLTEMVQWAYDNDICEESEIAFEYAQRGDFDSNARAFLNSNMQAKYVKDCATMCRHYKHAEMRKMSIKQWIKHRGSKIEGTGNWKPIVQFLRHQNIEFIPFLTKFKLWLHGTPKKNCIAIVGPPDTGKSYFCMSLISFLGGTVISHVNSSSHFWLQPLVDAKVALLDDATQPCWIYMDTYMRNLLDGNPMSIDRKHKALTLIKCPPLLVTSNIDITKEDKYKYLHTRVTTFTFPNPFPFDRNGNAVYELSNTNWKCFFERLSSSLDIQDSEDEEDGSNSQAFRCVPGTVVRTL
modifications: His tag
[3]
  Helicase Activity V (% unwinding/μM protein/min): 2.3 % unwinding/μM protein/min
